# Experimental data published in patent publication CN114805579A (UNIV ZHENGZHOU, dated 2022).
# Legend:
# 人ACE2 (293T-hACE2细胞表面) = 人ACE2 (293T-hACE2细胞表面) (human, UniProt Q9BYF1 18-805); assay: cell-based or functional assay
# [1] = biological target: hACE2-ecto重组蛋白 (人ACE2胞外区, C端6×His标签) (human, UniProt Q9BYF1 18-740)
# Chain of hACE2-ecto重组蛋白 (人ACE2胞外区, C端6×His标签) (Q9BYF1 other isoform, or with tags, fused parts or gaps): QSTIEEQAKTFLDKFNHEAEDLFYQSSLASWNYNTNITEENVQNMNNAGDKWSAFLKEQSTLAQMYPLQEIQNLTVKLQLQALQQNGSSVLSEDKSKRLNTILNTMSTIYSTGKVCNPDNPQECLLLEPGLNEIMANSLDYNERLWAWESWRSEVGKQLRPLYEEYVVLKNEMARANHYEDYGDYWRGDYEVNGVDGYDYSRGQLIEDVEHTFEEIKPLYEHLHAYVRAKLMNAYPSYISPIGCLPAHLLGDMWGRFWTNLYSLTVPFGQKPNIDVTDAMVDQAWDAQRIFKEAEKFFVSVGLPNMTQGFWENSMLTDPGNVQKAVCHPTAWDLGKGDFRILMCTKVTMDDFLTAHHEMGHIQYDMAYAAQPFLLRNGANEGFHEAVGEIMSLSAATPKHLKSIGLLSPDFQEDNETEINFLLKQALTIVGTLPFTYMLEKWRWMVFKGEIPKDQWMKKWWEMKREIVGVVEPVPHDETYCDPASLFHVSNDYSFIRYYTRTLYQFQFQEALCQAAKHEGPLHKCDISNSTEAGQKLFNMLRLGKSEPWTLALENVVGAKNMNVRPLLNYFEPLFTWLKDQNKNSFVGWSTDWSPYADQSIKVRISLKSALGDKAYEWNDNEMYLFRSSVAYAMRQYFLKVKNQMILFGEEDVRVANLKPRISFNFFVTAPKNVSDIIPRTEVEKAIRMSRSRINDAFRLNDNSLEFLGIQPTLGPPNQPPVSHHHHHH
# Chain of 人ACE2 (293T-hACE2细胞表面) (Q9BYF1 18-805): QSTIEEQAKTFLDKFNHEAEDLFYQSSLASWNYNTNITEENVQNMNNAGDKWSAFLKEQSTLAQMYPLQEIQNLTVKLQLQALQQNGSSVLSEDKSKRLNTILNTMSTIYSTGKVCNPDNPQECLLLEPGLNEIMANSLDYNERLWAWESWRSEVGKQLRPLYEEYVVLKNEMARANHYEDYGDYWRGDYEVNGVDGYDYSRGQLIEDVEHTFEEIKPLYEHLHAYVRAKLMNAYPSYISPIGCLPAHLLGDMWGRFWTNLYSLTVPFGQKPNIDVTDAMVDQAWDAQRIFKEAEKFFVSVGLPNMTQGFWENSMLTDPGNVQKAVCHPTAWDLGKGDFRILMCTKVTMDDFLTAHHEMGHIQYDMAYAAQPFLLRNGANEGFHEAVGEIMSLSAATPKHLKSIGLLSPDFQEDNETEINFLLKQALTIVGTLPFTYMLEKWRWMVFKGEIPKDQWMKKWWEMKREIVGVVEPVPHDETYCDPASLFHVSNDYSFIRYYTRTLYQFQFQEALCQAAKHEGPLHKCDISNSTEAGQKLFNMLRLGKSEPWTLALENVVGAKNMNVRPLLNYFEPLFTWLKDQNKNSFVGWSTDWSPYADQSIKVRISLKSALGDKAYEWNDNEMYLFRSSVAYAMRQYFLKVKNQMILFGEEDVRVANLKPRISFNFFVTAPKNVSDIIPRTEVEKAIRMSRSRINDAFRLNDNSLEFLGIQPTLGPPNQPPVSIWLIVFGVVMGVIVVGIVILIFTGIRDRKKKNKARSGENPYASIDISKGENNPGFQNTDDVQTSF
binder,measurement,setting,value
"抗人ACE2蛋白单克隆抗体2D6 (antibody, V domains shown) VH: EVKLVESGGGLVQPGGSLRLSCATSGFTFTDYYMSWVRQPPGKALEWLGFIRNRPNDYTTEYSASVKGRFTISRDNSQSILYLQMNTLRAEDSATYYCARDRGLRQAMDYWGQGTSVTVSS VL: QIVLTQSPAIMSASPGEKVTMTCTASSSVTYMHWYQQKSGTSPKRWIYDTSKLASGVPGRFSGSGSGTSYSLTISSMEAEDAATYFCQQWSFNPLTFGSGTKLEIK","假病毒阻断试验 IC50, SARS-CoV-2 Delta(B.1.617.2)假病毒感染293T-hACE2细胞 (荧光素酶活性)",人ACE2 (293T-hACE2细胞表面),0.346 µg/mL
same,"假病毒阻断试验 IC50, SARS-CoV-2 Omicron(B.1.1.529)假病毒感染293T-hACE2细胞 (荧光素酶活性)",人ACE2 (293T-hACE2细胞表面),0.139 µg/mL
same,"假病毒阻断试验 IC50, SARS-CoV-2野生型(Wuhan-1)假病毒感染293T-hACE2细胞 (荧光素酶活性)",人ACE2 (293T-hACE2细胞表面),0.164 µg/mL
same,EC50,[1],0.00841 µg/mL
